The DeepSol protein solubility set

Assay: soluble on expression in E. coli; label from the status in PepcDB or PDB records

Row | Sequence | soluble on expression in E. coli
1 | MKVEIEPQTLRYQPKEIRETKRPTIAYEHPNALTYLKSMKENIIRFANKKSLYTQHDEYIKNVFMDERVNLKYHCESIVSYIAEAFIHYSVWDHSHAYYPGRPSQQTARTDALEGTSRTLPTLAAWLHANGRSNTIITGLNQQPILVPEILRKAFLAGTNPQHKGYWGTLHHCDQRVCEGADLALALWMSKEWVWDCFSIDEKCQIITWFKQVNQCETVDNNWHLFVLTVQIVLKALTGEDEVQYDKYERVKEFYVGDGWFRDGAKGNYDYYNAWAFHYSLYWFTQIDVDFDSTFINNALSDFVGNYRYFFGKEGFPFFGRSACYRLAAAAPLLAAVDLQSDKITIGEAKRAFHCNLKYFISNGALKAGLPTQGLFDEDVRLVDNYSGPASSLWSLRALNIALFCGEKINLWQAEEAPLAIEQGNFELDISAINMKILGVYETQEVIAIFKNEYTQDQSPLSRRLLAPSRWEQTIEKITGRANRPKNNLLRKGITCYSSKMESFFLEHHHHHH | not soluble
2 | MRPLKVALVNIPLRVPGSDAWISVPPQGYGGIQWVVANLMDGLLELGHEVFLLGAPGSPAGRPGLTVVPAGEPEEIERWLRTADVDVVHDHSGGVIGPAGLPPGTAFISSHHFTTRPVNPVGCTYSSRAQRAHCGGGDDAPVIPIPVDPARYRSAADQVAKEDFLLFMGRVSPHKGALEAAAFAHACGRRLVLAGPAWEPEYFDEITRRYGSTVEPIGEVGGERRLDLLASAHAVLAMSQAVTGPWGGIWCEPGATVVSEAAVSGTPVVGTGNGCLAEIVPSVGEVVGYGTDFAPDEARRTLAGLPASDEVRRAAVRLWGHVTIAERYVEQYRRLLAGATWK | soluble
3 | VGFAPELYCGLENCYDVLEVNREEFDKQKLAKAYRALARKHHPDRVKNKEEKLLAEERFRVIATAYETLKDDEAKTNYDYYLDHPDQRFYNYYQYYRLRAAPKVDL | soluble
4 | MTMEKGMSSGEGLPSRSSQVSAGKITAKELETKQSYKEKRGGFVLVHAGAGYHSESKAKEYKHVCKRACQKAIEKLQAGALATDAVTAALVELEDSPFTNAGMGSNLNLLGEIECDASIMDGKSLNFGAVGALSGIKNPVSVANRLLCEGQKGKLSAGRIPPCFLVGEGAYRWAVDHGIPSCPPNIMTTRFSLAAFKRNKRKLELAERVDTDFMQLKKRRQSSEKENDSGTLDAVGAVVVDHEGNVAAAVSSGGLALKHPGRVGQAALYGCGCWAENTGAHNPYSTAVSTSGCGEHLVRTILARECSHALQAEDAHQALLETMQNKFISSPFLASEDGVLGGVIVLRSCRCSAEPDSSQNKQTLLVEFLWSHTTESMCVGYMSAQDGKAKTHISRLPPGAVAGQSVAIEGGVCRLESPVN | soluble
5 | SLRGWRGLRVYDMHVHLHEYSDREVEEILDADKSLVVVAVSDDLESAWRTLDLWHTFGGRVVPCLGFHPWNVREGRVWEAWEVLRLAYRYGVPCLGEVGLDRRFVDEYTWRVQNEVFDAFVQLAEDMGVMLNIHAPDAWKHVAHRIGWTSRARFMYHWYTGPATLPRALPEGRVWFSINSAIRVQEKSVRVAREIPLRSLVVESDGPYNYRGLRLSPLMVRETVKLVAEARGEDPGRLMEAISLNSERLLGLL | soluble
6 | AAIRHITTGTYIARIREEYQQTEVKPELQPMKEALARMTDRAEALIAFVTEQKDQELLDFQARRLVEMTAHAVFGHLLMLAANDDDSFRQSAEVYLRYGQAEQEKIDSYVRAFRPEELTFYSRCSRPE | soluble
7 | MKNKLLYKLRSGKNPKFIYYSVNALRLIIPKGIFRLRLQGKLSSLSRRKDKEYIEHRVDYYNKLSGTVQLPSSAPHLSEHKMSKQKVYFFDTYQYTRWFSDQFQWGFCPGDVTFVPDYPSIVKSRPLTDDNVNSIVMKLDKVRHFIFVDDKKAFTEKKNMVIFRGKVKGKPSRKLFMEMYFHHPMCDLGDVSKNTTDPAEWRTEKKTINEHLDYKFIMALEGIDVASNLKWVMSSNSIAVMPRPTCETWFMEGTLIPNYHYIEIKPDFSDLEERLNYYIEHVDESLEIINHAHEYVSQFKDKRRENLISLLVLDKYFKMTGQKSLEHHHHHH | soluble
8 | MGSDKIHHHHHHLIRGLYTAGAGMMLQMARQDVVANNLANVNTSGFKKNTAVAKAFPDMLISRLGECKEDKQGQLKVQSPVVIGRLGTGASISGIYTDFDNNNLKKTDSPCDLAITGAGYFVVQTPEGQRFTRCGEFKINSEGILTTNSGYPVLDSNDSPITIEGEFLIDEQGNINVDGENITRLKIVNFNDLQILERLGDNLLNSPEEPYVMERPEMLQGYIEQSNVNAVKEMVTLISVVRAYESLQKMVQAEDEIMGQAIDKVGSIN | not soluble
9 | MAHHHHHHMSSAHKPTTQEAINFFKQYREKFQRSSSGGNSPSQNSVNASPQQNIVTQVQQVDVVPDLTTRSIIPMNRRNGTTTTRLDLLRKSPTNCSPCLVQEVEIKPLLPPLPFASVPKVTLVLDVDETLVHSTFQPSSDVVYDKVLLVPSEGKTYTVSVKYRPYLEDFLRFVSRRFEVVIFTASMRAYCDKLMDEIDPHGILGNLRLFREHCTFSERSYVKDLHRLGRDLRRVVILDNSPAAYSFQQRNAIPIKTWINDPKDRELFLLLPLLDRLAMCDSVYSELDPYNARGCDYL | not soluble
10 | MKEKKKEIEKLLARPDLTPEQMKNYGMEYAKIEEIENITNRIKETQEFIELLREEGENELEIEKYEKELDQLYQELLFLLSPEASDKAIVEIRPGTGGEEAALFARDLFRMYTRYAERKGWNLEVAEIHETDLGGIREVVFFVKGKNAYGILKYESGVHRVQRVPVTESGGRIHTSTATVAVLPEIEEKDIEIRPEDLKIETFRASGHGGQYVNKTESAVRITHLPTGIVVSCQNERSQYQNKQTALRILRARLYQLQKEQKEREISQKRKSQIGTGERSEKIRTYNFPQNRVTDHRINYTSYRLQEILDGDLDEIISKLIEHDIENNLEEVLGIGASVEEK | soluble
11 | QQRFLNIATDGRLSPKQKSNFLALEAEACIPYMPISEALREAMSDGVICDMFEGHAPFKPRYVLPDYAKFLSQGSEYLELSPAEDFDDALN | not soluble
12 | KMAHIGSWKWDIVTGELYWSDELYLIFGLDPQEFRPAYNSFFNYIHPGDRDFVDNAIKKALNGEQLYDNDHRIISADGEERIVHSHGEVIFDEKNTPVRMRGTLQDIT | not soluble
13 | IGDFEYYIDGMLTFNTNKITEMDELTPDYAYQARTGNRIDQSQLLIWKQWASNPDLIPESYEDAVANPQKYPWNAAGKYKLGNAVFQDTNGDRKIDSYDKVPTGYTNIPELIPTIRLGFSWKGFDARAVLTAYLNRTVPCRENMDYGFGWGGTSTHEITNTWGYYTDDPTDPRNINAKYPRLSTSFSDLDRNYPYNESTIWVVNGDFLSLRNVEVGYSLPARLISKVNMTKCRLYFSGYNLCNWSHLPKGFDPENPTNYIWAYPKTRSFTFGVNIGF | not soluble
14 | GSMAGEDVGAPPDHLWVHQEGIYRDEYQRTWVAVVEEETSFLRARVQQIQVPLGDAARPSHLLTSQLPLMWQLYPEERYMDNNSRLWQIQHHLMVRGVQELLLKLLPDDRSPGIHRD | soluble
15 | MRGSHHHHHHTDPALRADLSLLKALSEADAIASSEQEVRQILLEEADRLQKEVRFDGLGSVLIRLNESTGPKVMICAHMDEVGFMVRSISREGAIDVLPVGNVRMAARQLQPVRITTREECKIPGLLDGDRQGNDVSAMRVDIGARSYDEVMQAGIRPGDRVTFDTTFQVLPHQRVMGKAFDDRLGCYLLVTLLRELHDAELPAEVWLVASSSEEVGLRGGQTATRAVSPDVAIVLDTACWAKNFDYGAANHRQIGNGPMLVLSDKSLIAPPKLTAWVETVAAEIGVPLQADMFSNGGTDGGAVHLTGTGVPTVVMGPATRHGHCAASIADCRDILQMQQLLSALIQRLTRETVVQLTDFRGLCGR | soluble
16 | MGSDKIHHHHHHKDDEESTSGYDPNKPIVLTDFYPPEGKLATQVILNGSNFGDSKENVKVFFNDKEASVISVKDDRMLVLAPKRASTIEDPECVVKVQVHEQIEEYKQTFDYYIQTTVTTLVGGSTSAQVNPTGTIPLSEAQFRANIDRCICVDQDKNVFFLVDNDGKFAAFMLNEEADKLISLKSDINALFNSPVLGYNSKDDIVYQFWANRDSHEVYYFDPKTDYAPTTAISSISWDDPNFPNIEGFGVWAAKCNFTMGPDGKMYSRMLGGNLVRIDVENARGENLTNGDLVGTKDGSAYGLVFDPQDENVFYFSNNDKHCIYKYDLRTKECACWAGQEGKSGYLDGPIGQAMFNKPGQMCVDSEGNIILTDTENHCIRKITMSTGYVSTLAGKPQNSGYVNGSAEDAQFKKPLGICIDNDDVMYIGDSENRAIRRLAVE | not soluble
